The target of series [1] is T1, MapADO (Moesziomyces aphidis, UniProt W3VHW6).
T1 construct: gene PaG_05861
T1 sequence (W3VHW6 2-548): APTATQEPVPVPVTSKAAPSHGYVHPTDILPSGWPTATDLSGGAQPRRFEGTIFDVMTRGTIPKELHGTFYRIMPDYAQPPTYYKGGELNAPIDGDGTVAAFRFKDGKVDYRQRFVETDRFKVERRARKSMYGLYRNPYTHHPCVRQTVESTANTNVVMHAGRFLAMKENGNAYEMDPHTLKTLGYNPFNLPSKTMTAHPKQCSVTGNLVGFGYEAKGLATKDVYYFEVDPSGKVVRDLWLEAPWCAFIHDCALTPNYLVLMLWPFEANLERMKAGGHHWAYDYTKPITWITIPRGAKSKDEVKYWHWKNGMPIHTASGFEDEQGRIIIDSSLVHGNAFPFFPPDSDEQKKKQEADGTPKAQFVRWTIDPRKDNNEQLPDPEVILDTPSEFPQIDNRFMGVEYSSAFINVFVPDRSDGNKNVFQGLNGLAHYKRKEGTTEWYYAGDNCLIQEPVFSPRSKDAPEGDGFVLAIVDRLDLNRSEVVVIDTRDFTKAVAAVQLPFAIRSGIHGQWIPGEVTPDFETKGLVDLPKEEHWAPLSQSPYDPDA
The series can be described thus: X-ray crystal structure (cocrystallization). The conditions noted are these: 40-fold molar excess ligand; front pocket at Fe2+. The series is classed as binding.

Series [2] deals with T1, MapADO. Put plainly: inhibition of isoeugenol conversion. The series is classed as cell-based. As to conditions: equimolar to isoeugenol; enzyme preparation not stated in main text.
In series [3] the target is T1, MapADO. Put plainly: inhibition of isoeugenol conversion. The series is classed as cell-based. The conditions noted are these: equimolar to isoeugenol; enzyme preparation not stated in main text; suggested competitive.
Substrate in series [4]: CC=Cc1ccc(O)c(OC)c1
Put plainly: spectrophotometric monitoring of vanillin formation. As to conditions: co-substrate O2; Fe2+ enzyme. The series is classed as biochemical, Thermothelomyces thermophilus. An excerpt: spectrophotometric monitoring of vanillin formation on ADO (TtCCO)

Substrate in series [5]: CC=Cc1ccc(O)c(OC)c1
The description is as above. The series is classed as biochemical, Moesziomyces aphidis. As to conditions: co-substrate O2; Fe2+ enzyme. An excerpt:
spectrophotometric monitoring of vanillin formation on MapADO

For the molecule `COc1cc(C=O)ccc1O` [compound 1, vanillin], the “X-ray crystal structure (cocrystallization)” value at MapADO [1] is listed as “In the 1-bound structure (PDB ID: 9G89), interactions include hydrophobic contacts”. Also, the “% reduction of 1a conversion” value on MapADO [2] stood at 60%.

Consider `O=Cc1ccc(O)cc1` [compound 3, 4-hydroxybenzaldehyde], for which the “X-ray crystal structure (cocrystallization)” value on MapADO [1] is “The 3-bound structure (PDB ID: 9G8A) shows similar hydrophobic interactions and hydrogen bonds”.

One may read the % inhibition as the drop in the measured response relative to a control, in per cent. As to `COc1cccc(C=O)c1O` [compound 5, ortho-vanillin], the “% inhibition” value at MapADO [3] was found to be 25%.

B1: ADO (TtCCO) (Thermothelomyces thermophilus ATCC 42464) (protein)
chain: MAHIHDLAPEVSNYSSGRLTPPTPVRFPRTPVFASMNKPCRFEGDVFDLEVSGAIPPDIDGTFFRVQPDHRFPPLFEDDIHFNGDGSVTAIRISGGHADLRQRYVRTERYLLETRARRSLFGRYRNPWTDNESVRGVIRTASNTNVVFWRGALLAMKEDGPPFAMDPVTLETLGRYDFEGQILSPTFTAHPKIDPDTGEMVCFAYEAGGDGSDCSVDVAVWTVDADGKKVEECWYKAPFAGMIHDCGITKNWVVLPLTPIKMDLERMKRGGNKFAWDPSEDQWYGVVPRRGAKSDDIIWFRADNGFHGHVAGCYELPSGEIVFDLTVADGNVFFFFPPDDNITPPADGVAKRNRLSSPTVRWIFDPKAKKSAIRTEAAGDADIWVADERVKPALTWPTNGEFSRIDDRYVTKPYRHFWQAVVDPTRPYDFEKCGPPAGGLFNCLGHYTWSDQNYHHGHNTGDPSGDGRSNGSAEEATAGKFGLQDVYFAGPTMTFQEPTFIPRQGAAEGEGYLIALLNHLDELRNDVVIFEARNLGKGPLAVIHLPLKLKLGLHGNWVDSREIEAWRRRRAENGDVGPLRVAKEPLPWQKKFAAAAQNGSNGV
notes: purified recombinant; construct details not given; genus given only as T
Usually Km stands for the concentration of substrate that gives half-maximal velocity. The term Vmax denotes the top rate of the reaction or transport when substrate is in excess. By kcat is commonly meant the maximal rate divided by the concentration of active sites. Turning to B1, in series [4], the Km was 2240 ± 264 µM, the Vmax turned out to be 43 µmol/min/mg and the kcat was 44 s⁻¹.

B2: MapADO (Moesziomyces aphidis) (protein)
chain: T1 sequence (W3VHW6 2-548)
As for B2, in series [5], the Km came out at 118 ± 13 µM, the Vmax stood at 231 µmol/min/mg and the turnover number (kcat) turned out to be 238 s⁻¹.

Values taken from publication PMC12308385, “Structural and Functional Characteristics of Potent Dioxygenase from Moesziomyces aphidis” (JACS Au, 2025).
